Measured values from PMC5680806 (mAbs, 2017).
Where a chain is given by its changes, count along the chain named.

B1: SJL-565-1 (antibody, V domains shown)
VH: QAYLQQSGPELVKPGASVKISCKASGYTFTDYYINWVKQRPGQGLEWIGWIYPGSGNTKYNEKFKGKATLTVDTSSSTAYMQLSSLTSEDSAVYFCARSVYDYDEDWGQGTRVTVSA
VL: DIVMTQSQKFMSTSVGDRVSVTCKASQNVGTNVAWYQQKPGQSPKALIYSASYRYSGVPDRFTGSGSGTDFTLTISNVQSEDLAEYFCQQYNSYPFTFGSGTKLEIK
B2: SJL-565-3 (antibody, V domains shown)
VH: B1 VH with Q82H, L83V, A97S, R98S, V100R, R112L
VL: B1 VL
B3: Balb-1 (antibody, V domains shown)
VH: QAYLQQSGPELKKPGETVKISCKASGYTFTNYGMNWVKQAPGKGLKWMGWINTNTGEPTYAEEFKGRFAFSLETSASTAYLQINNLKNEDTATYFCASNYYWYFDVWGAGTTVTVSS
VL: DVVLTQSPATLSVTPGDSVSLSCRASQSISNNLHWYQQKSHESPRLLIKYASQSISGIPSRFSGSGSGTDFTLSINSVETEDFGMYFCQQSNSWPLTFGAGTKLELK
B4: SJL-564-1 (antibody, V domains shown)
VH: QAYLQQSGAELARPGASVKLSCKASGYTFTSYGISWVKQRTGQGLEWIGEIYPRSGNTYYNEKFKGKATLTADKSSSTAYMELRSLTSEDSAVYFCARSTYSNYVYAMDYWGQGTSVTVSS
VL: DVVLTQTPLSLPVSLGDQASISCRSSQSIVHSNGNTYLEWYLQKPGQSPKLLIYKVSNRFSGVPDRFSGSGSGTDFTLKISRVEAEDLGVYYCFQGSHVPYTFGGGTKLEIK

What follows are binders tested against recombinant programmed cell death protein 1 (PD-1) (Homo sapiens, UniProt Q15116).
recombinant programmed cell death protein 1 (PD-1), sequence (Q15116 25-170): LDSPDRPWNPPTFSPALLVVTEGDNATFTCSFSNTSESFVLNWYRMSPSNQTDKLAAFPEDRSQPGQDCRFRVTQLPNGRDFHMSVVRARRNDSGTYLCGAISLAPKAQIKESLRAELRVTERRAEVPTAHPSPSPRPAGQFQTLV
B1: binds.
B2: binds.
B3: binds.
B4: binds.
